From the DeepSol protein solubility set

Assay: soluble on expression in E. coli; label from the status in PepcDB or PDB records

Sequence	soluble on expression in E. coli
MEEKWCNYLLNEGRDWKTMNKTILKTCIISAVLGGVLLTEKNGEVKAEEITPQTNHTGVFKDVPKGHWAYEAIQQLTDEKIVFGYDDGRFGFGDNVTREQVAALLYRYFNLAEEKNYENPYGDVSEESTSYIKEILSLTEMGVFKGDEHGNFRPKASLTRAEMAQVLTNAFHLKAKSNHTFNDVSTNSWASNAISAVQTNNIAKGVGGGNFAPNMDVTREQYAQFLYNAIQETEKTQETKGQLLASILGETNWQGTKVYDKDHNDVTKENQNFIGLAKYDAKTARYEFFNASTGESRNDSGTFFITNDGKKRVLISETQNYQAVVELTQLDKEKFTYKRMGKDAKRNDVEVFVEHIPYQEKELSFTRPDKNLESSTGKIVTDVDGDKILSSTLWNGTVVLDEQGNNVTKYNSNLISLAKYDKNTNKYEFFNVNTGESRGDYGFFDVVHDNKIRAHVSLGNNKYGAVLELTELNKEKFTYTRMGKDANGKDIKIFVEHEPNTGDLKPNFTK	not soluble
MRDTFPSLQAQHLHGIDEQALRPAFSTHKPRILILYGSLREVSYSRLLAFEAGRLLERLGCEVRIFDPKGLPLPDETPASHAKVQELRDLSQWSEGQVWVSPERHGAMTGIMKSQIDWIPLAVGSVRPTQGKTLAVMEVSGGSQSFNAVNQMRILGRWMRMITIPNQSSVARAFQEFDEDGRMRPSSYYDRVVDVCEELVKFTLLTRDASAYLTDRYSERKEQAAELEKRVSLKS	not soluble
MGSDKIHHHHHHMSLEKERIEKEHIEEMNQAKLRFFTNVSHEFRTPLTLIISQVELMLQKNTIPPSLHNSIFRIRKHAQQMKLLISELLDFRKFDQNYIQLKLSEQSLNTFLEEVYLSFSAYASQKSISYHLKLLEQDISIWIDDWQMRKVLFNLLSNAFKHVPDKGEISILTSTTPDQVVIAVKDSGNGISKEEQERIFDRFYQADNRNKAIHVGTGIGLALTKSIIQLHHGTIEVESELNEGSCFIVKLPKTRDCFEKDTEVVFLESPEKEPMVQENTIPDENFMKKDDSTFETPLIDEREGKRKVLLVEDNVELLQVLKEIFSSLYQVVTAANGEEGLKQAFAEVPDLIVSDVMMPVMTGTEMCLKIKNNINLCHIPVVLLTALDTVDQNIEGLRRGADDYITKPFNAKILITRCNNLIRNRLLMQSRFAKDQILEINLLAANPIDKGFLDRVIKVVDKHIDNEDFDIGMLCQELGMGRTLLHTKFKALTGMTPNEFILNHRLKIASLMLKNEPYLQVAEISDRLGFGSPRYFSRCFKNQYNVTPMEYRKGAKQENLK	not soluble
MDQKSTTCLEALAKLSQQREHQTTPATLCSSEHFFANETIYSDATFLSTTEEAFISSPSSSTQGPKPGLKRVSTGPMTRILEGCQNDKPNSPELERVEEAEDNYSGTSSEEAFSQGIPYPHQVGGHGALSSFERGRVLKPAAKKEIDFYNFIYSDNLPSELEWLRTVTPKYFGQRKTQAKAKRILENQVTPFSQTSSVPVNTVLHIDRKDSERNIWKDQVGELVMDTNPWARACLLKELQKEDEVKSFIILEDLTCHLKKPCVLDCKMGTRHYDDDATEEKKKAHIEKATKTTSSSTGIRFTGMQVYKLPSHTFLFHDKYYGRQLKSHELKNELFEFFHNGVLLRVDIIEQFLSKLQWLYQHLENQHYFNFYSSSLLFVYEGDEMATCPISDVRMIDFAHTQRCVEEQQNDGYLFGLSNLIHLMKSLLEDERNEMR	soluble
SEAKTLGTVTPRKPVLSVSARKIKDNAADWHNLILKWETLNDAGFTTANNIANLKISLLNKDKIELDSSSPASKENEEKVCLEYNEELEKLCEELQATLDGLTKIQVKMEKLSSTTKGICELENYHYGEESKRPPLFHTWPTTHFYEVSHKLLEMYRKELLLKRTVAKELAHTGDPDLTLSYLSMWLHQPYVESDSRLHLESMLLETGHRAL	soluble
MSLSRILFLTDLHWDHDYLEGTDPDCADPLCCRRGSGLPPASRPGAGYWGEYSKCDLPLRTLESLLSGLGPAGPFDMVYWTGDIPAHDVWHQTRQDQLRALTTVTALVRKFLGPVPVYPAVGNHESTPVNSFPPPFIEGNHSSRWLYEAMAKAWEPWLPAEALRTLRIGGFYALSPYPGLRLISLNMNFCSRENFWLLINSTDPAGQLQWLVGELQAAEDRGDKVHIIGHIPPGHCLKSWSWNYYRIVARYENTLAAQFFGHTHVDEFEVFYDEETLSRPLAVAFLAPSATTYIGLNPGYRVYQIDGNYSGSSHVVLDHETYILNLTQANIPGEGHHHHHH	soluble
MSLRKTVAFGFVGTVLDYAGRGSQRWSKWRPSLCICQQESLVIDRLELLHDARSRSLFETLKRDIASVSPETEVVSVEIELHNPWDFEEVYACLHDFARGYEFQPEKEDYLIHITTGTHVAQICWFLLAEARYLPARLIQSSPPRKKEQPRGAGEVTIIDLDLSLYNAIASRFAEERQQTLDEGHHHHHH	soluble
LMPTERIDINEREDCTASEMTAPTVPVALVTGAAKRLGRSIAEGLHAEGYAVCLHYHRSAAEANALSATLNARRPNSAITVQADLSNVATAPVSGADGSAPVTLFTRCAELVAACYTHWGRCDVLVNNASSFYPTPLLRNDEDGHEPCVGDREAMETATADLFGSNAIAPYFLIKAFAHRVAGTPAKHRGTNYSIINMVDAMTNQPLLGYTIYTMAKGALEGLTRSAALELAPLQIRVNGVGPGLSVLVDDMPPAVWEGHRSKVPLYQRDSSAAEVSDVVIFLCSSKAKYITGTCVKVDGGYSLTRA	soluble
MGSDKIHHHHHHMIQIGKRYSLEVVKQVNFGVYLNAQELGQVLLPNKFVPTGCNVGDMVDVFLYLDSEDIVIATTQKSLAQVGEYAYLKVIATGPFGAFLDWGLDKDLLLPFGEQHKPAEEGHSYLVYVHANHADERIMASSKLDKFVDKTEAHYTEGEQVNLIIGGTTELGYKAIINNLHWGVIYANEVFQKLRFGQKVTGYIKTMRSDGKIDLVLQKGDKDELDKNARLIINKLRSANGFLPLHDKTDADVIYDKLGMSKKAFKKSIGGLFKAGEITIESEGIRLTV	not soluble
MESKNKNGDYVIPDSVKNYDGEPLYILVSLWCKLQEKWISRNDIAEAFGINLRRASFIITYISRRKEKISFRVRYVSYGNLHYKRLEIFIYDVNLEAVPIESPGTTGPKRKTYRVGNGIVGQSNIWNEMIMRRKKES	not soluble
MKYTLDQLNVYNPDGKAKSISIIHGLTISTSNTNSDTTGLTGCLYLTTKNQANDPSFSVYVIKQAQTVSTTQPNSTVVILNTELNPDISNYDQPLKTSYVTNINQSPDSDLFFQWDIPASGWTQKDVTNQFFENPIILETFDWNTMKKNFTRQFFDHIEPLQIGVKYWYFTASKPVSMTMESKYVSNLMYTATSVNTTGLIVNDFVFLEHVVNFPLDLTRVRTIGTLISAFPESSTINFVYKDDQSSSRQSFSTEQTHSLFDTYMQASSLTINATALIPGRFFCQYFGVTGDLLPPGTSTPSTPSTVETTMPSTTRISTTPSAAPHEFQLICFIIAFLLVL	not soluble
MGSDKIHHHHHHMDRIIEKLDHGWWVVSHEQKLWLPKGELPYGERANFDLVGQRALQIGEWQGEPVWLVQQQRRHDMGSVRQVIDLDVGLFQLAGRGVQLAEFYRSHKYCGYCGHEMYPSKTEWAMLCSHCRERYYPQIAPCIIVAIRRDDSILLAQHTRHRNGVHTVLAGFVEVGETLEQAVAREVMEESGIKVKNLRYVTSQPWPFPQSLMTAFMAEYDSGDIVIDPKELLEANWYRYDDLPLLPPPGTVARRLIEDTVAMCRAEYE	not soluble
MGHHHHHHSHMADQKKVSEAAKEREIKISSSDNEIFLVPRNVIRLSNTINTLLMDLGLDDEEGTNAEPIPVQNVTASILKKVISWCNHHHSDPISTEDSDNREKRTDDIGSWDVEFLKVDQGTLFELILAANYLDIKGLLDVTCKTVANMIKGKSPEEIRRTFNIKNDFTPEEEEQIRKENAWCED	soluble
MNPKIVFFDIDDTLYRKYTDTLRPSVKTAVAALRGKGILTALATGRSLATIPEKVRDMMAEAGMDAVVTINGQFALLHGKTVREVPMDAGLMGRVCAHLDGLGMDYAFVGGEGIAVSALSECVCRALKHIASDFFADKDYFSSKPVYQMLVFAEENEMPL	not soluble
MASNQQDVVKELNQQVANWTVAYTKLHNFHWYVKGPNFFSLHVKFEELYNEASQYVDELAERILAVGGNPVGTLTECLEQSIVKEAAKGYSAEQMVEELSQDFTNISKQLENAIEIAGNAGDDVSEDMFIGMQTSVDKHNWMFKSYLSLEHHHHHH	soluble
KAPNLYMTDTTGTYRYLYDVQAKYTILFFWDSQCGHCQQETPKLYDWWLKNRAKGIQVYAANIERKDEEWLKFIRSKKIGGWLNVRDSKNHTDFKITYDIYATPVLYVLDKNKVIIAKRIGYENLDDFLVQYEKSLKTK	not soluble
GPGSMHAAPYEEVALSDMLLEDGKLRYPCPCGDLFELSLSEFAKGSVVAECPTCSLTVRIICNEEERHAFLLRCNALNGVRDVVIA	not soluble
MGSDKIHHHHHHMPSGGVLPVGVHATPMSVREEFDEWAASGRDKGMEDRHWHTAKDVLARMPVEDDDTVLDLGTGSGYAVRALRERGVARGYGLDGAPEMAANARTYTDDDDLAYVVGDFGSLPFADDAIDHVFSFEAFYYASDPRETLAEIRRVLKSGGTFYCGVNYYEENVHSHDWQDSISVEMTRWDRATYREAFRGAGLHVAAQDLIADTEIDIPAASEFPHEGFDSRADMVERYRTFGTLLTVGVAP	not soluble
MGSDKIHHHHHHVDIQQIRNATLVVNYANQVFLIDPFLGEKGSLPPFGETPNAVPNPLVDLPVDVSTLLDPDAIFVTHLHADHFDETAKEILPKQIPLYAQNQADAATIREAGFTNVSSFENGLALGDIRVYHTSGRHGVGEIGQRMGTVSGLVLTHPDEPTLYIAGDTIWCEEVETAIEQHAPDIIIVNSGAAQFLTGEPITMSQRDLLAVHQAAAEATIIVSHLESVNHCLLRRDMIADFLAAHHLSAHFLIPDDGETISF	not soluble
MATANNPPSGLLDPTLCEDRIFYNILEIEPRFLTSDSVFGTFQQSLTSHMRKLLGTWMFSVCQEYNLEPNVVALALNLLDRLLLIKQVSKEHFQKTGSACLLVASKLRSLTPISTSSLCYAAADSFSRQELIDQEKELLEKLAWRTEAVLATDVTSFLLLKLVGGSQHLDFWHHEVNTLITKALVDPLTGSLPASIISAAGCALLVPANVIPQDTHSGGVVPQLASILGCDVSVLQAAVEQILTSVSDFDLRILDSY	soluble
MDPKAEGNGENITETAAGNVETSDFVNLKRQKREGVNSTGMSEIDMTGSQETPEHNMHGSPTHTDDLGPRLDADMLDSQSSHVSSSAQGNRSEVENELSNLFAKMALPGHDRRTDEYILVRQTGQDKFAGTTKCNLDHLPTKAEFNASCRLYRDGVGNYYPPPLAFERIDLPEQLAAQLHNLEPREQSKQCFQYKLEVWNRAHAEMGITGTDIFYQTDKNIKLDRNYKLRPEDRYIQTEKYGRREIQKRYEHQFQAGSLLPDILIKTPQNDIHFSYRFAGDAYANKRFEEFERAIKTKYGSDTEIKLKSKSGIMHDSKYLESWERGSADIRFAEFAGENRAHNKQFPAATVNMGRQPDGQGGMTRDRHVSVDYLLQNLPNSPWTQALKEGKLWDRVQVLARDGNRYMSPSRLEYSDPEHFTQLMDQVGLPVSMGRQSHANSVKFEQFDRQAAVIVADGPNLREVPDLSPEKLQQLSQKDVLIADRNEKGQRTGTYTNVVEYERLMMKLPSDAAQLLAEPSDRYSRAFVRPEPALPPISDSRRTYESRPRGPTVNSL	soluble
MLTSAQTRSLFRNNIFYKYRTAISVCQSIGRSIRSEEDWAYTFTLDSRFPKYISDHRNLINESVSFYEKRIPDFPSEKSIQKLKNEIFRNLPFLEHHHHHH	not soluble
REAFVSIQTSTIPKTAYAAVNFVETQGEDESYTDSLSTDNKRDIYADFAVIEIPLFLTNHRDYQVFNEFIKPAIETYKQLGNSSFEKKQLDQHKNDNFYMLGYPLVESSIDALILNQRRQYNNSYTEKYTPQTLTKDQRTIDLSREVPTLIQNKTENSTGSQLLVNQSLSSTSEGIIE	soluble
